Assay: soluble on expression in E. coli; label from the status in PepcDB or PDB records

Sequence	soluble on expression in E. coli
MGSDKIHHHHHHMSLFAALRLPREILFGKGQRHALSTVAGRFGRHALVCTDERFAGTAVFAEIVQSLQAASIEVLVHDRVLPDVPRDSVGICVDEAEKFQPEMVIGIGGGSCLDFAKCADLLLSHGGKLQDYYGEFKVPGPTLPLIAVPTTAGTGSEVTPVAVISDPDRTLKVGISSPYLIAAVALCDPELTMTCPPALTAIAGADALTHAIEAFTAKQRGEDPSLAQQHVFIGKTALTDHFALLAIKLLGRSLEKACTDGTDADARADVMMGALAAGCAFGTAGTAAAHAVQYPAGALTHTAHGLGVATMMPYVMTYNSRVVAAEMAEIGDALGLEAKGRSAEEMADATIKEIRRLFTAIGITPTLADLGLPADKLDWTADQALGIDRLIKNNPRPFDLTAMRRLVQAAHDGDLAACAM	not soluble
MGSDKIHHHHHHMSRLAHNKALPYKIIVDLSFHRTRLPSDVSSLIKFEQRPAIINIHGLLGSHVMFHSLNKLLSRKLDADIFSVDVRNHGISPKAIPYDYTTLTNDLIYFIETHIGLERPIYLLGFSMGGKIALLTTLYKNINIRKCISIDLPPYETPELDPMILQNYDLIMRIIRRDVKILRGSPSWQKKVLELFKSLECNKRKCGGAVALYFANGFLSVKSNNVHQAQLHYEQQQHDPYINYSMPLSSMPNLLDEVKKWPDLSNQRDFFQKGTASRKVLFMKGLQSNFINNDYSLLRYNFPCADVREFNTGHNLLLENPEDSFKCILNFFAEETLDFE	not soluble
MGSDKIHHHHHHMKVKVGVVGATGEVGRTMVKVLEEFNVPVTELRLFASERSVGKEIEFKGEKFKVELLTEESMKWKCDYFLFSAGASVSRKFAPIAAENGVTVIDNSSAFRMEKEIPLVVPEVNAYLLKGYTGIIANPNCSTIQMILSIYKLHEVYGIEEIFVSTYQSVSGAGHKGIEELLAQERGENVMKVFPKPIHRNVIPLIGDIQENLFSQEEMKMVNETRKILNDYSIRVYPTTVRVPVLYGHSEAIMVRLKKPYESLEKVREVIASGEDVVVTDDLITPVDVAGKNETYVCRLRATDERSILFWNVADNIRVGAATNAVRILLKHAEMNGKV	not soluble
YCKTIPMPDLAYSEISVIGKLIRALPEPCALHLANSSTVRYAQLFTVPPQVEICCNRGVNGIEGSLSTAIGYAAASSKLNFIIIGDLSFFYDMNALWNQNYGANIRILLLNNEGGEIFHTLPGMDKSSRSREFITAEHYTTAKGWAEERGFIYMKVTGEEELEEAMQPFTSPETRMQPMLLEVFTDKEKDTTLLREYYHGLKNKNE	not soluble
MEKQNFVVLKNICKRFGSNTVIGNLDLEIKKGSLVTLLGPSGCGKTTVLRLVAGLEKPTSGQIFIDGEDVTERSIQQRDICMVFQSYALFPHMSLYENVAYGLKMLKLPSEEVRQRVDEALKIVDLEGMGERYVDQISGGQQQRVALARALVLKPKVLLFDEPLSNLDANLRRSMRETIRELQQRFDITSLYVTHDQAEAFAVSDTVIVMKQGDIMQIGTPQELYKAPKSMFMANFMGEANMFQGHFDGQQIHINGYAIDADLEVTRDKPNGEYQIGVRPEAITLHTQGSESQACQILKSAYMGSMYEVTVKWHDQELLLQLNSAQFNHTLTQHAYVVFNPRGLFLLPYAE	not soluble
MHHHHHHSSGRENLYFQGSSESVRVVVRCRPMNGKEKAASYDKVVDVDVKLGQVSVKNPKGTAHEMPKTFTFDAVYDWNAKQFELYDETFRPLVDSVLQGFNGTIFAYGQTGTGKTYTMEGIRGDPEKRGVIPNSFDHIFTHISRSQNQQYLVRASYLEIYQEEIRDLLSKDQTKRLELKERPDTGVYVKDLSSFVTKSVKEIEHVMNVGNQNRSVGATNMNEHSSRSHAIFVITIECSEVGLDGENHIRVGKLNLVDLAGSERQAKTGAQGERLKEATKINLSLSALGNVISALVDGKSTHIPYRDSKLTRLLQDSLGGNAKTVMVANVGPASYNVEETLTTLRYANRAKNIKNKPRVNEDPKDALLREFQ	soluble
MTLRSQDPRIAIIGGGIAGATAAVHLGELGLNVVLMEKSAGLVSGPPICHLHAGGNLYREISEQQCIDLLEQSIETVRLYPHTLNVRPTLIAIPQSDPGQPEEILPRLVTIQNAYRKLVEQDAANQVLGAVDNYYRLYQREELERLAQQQQANPPQSDDEWVIPFAQHADLAQLKYPVVLVQEYGWSVFRLAASVDLTLEALPNCQVMLRTELVDATFQDNQWRLTYLDAQGERHTQTVDYLVNACGFETGRVDDMARHHRQRLVEFKAAYVTHWPACHQWWPEVIFHGPRGSEDGMAQLTPYADGTFQLHGMTESITLFADGLVASTPTSAQPQLPLYLQHKIERGWPMSAQQERTVRAIQHMSRFVPSFDNAEFAGKPLFGAQQIPGDDVTLRAADVSFEANQYARLEVVKGSSALRAARQLVAVWQLKPDAGELSIETEHPCSMAFTAQQVEQQAIRLCHARGYPAALAKVYGLLEHHHHHH	soluble
MGSDKIHHHHHHQTPAPLAEWQFSAGIPLEKLFEDTIPDWEVRLGGAAMVRPRYDGSSNYIVVGGPSIDIRYRDIAFASIGEGLGVNVLRGKNWRAGIALSYNLGRRAKETSPLLDGMENINPAPEAKLFAEYAVSKEFPLVMRVDARRSLGGSDGWIGDIGAYMPMPGSSEKFFWFAGPTMTLADSRYMNAWYGVSASQARPGRPQFSPSGGVRSYGFGVSAVWFFDKHWFATTDVAVMQLVGDAKRSPLTQSSTNGVFDVSVNYQF	not soluble
MNSRMSKLRRSISRSVFQLNSSLSRQNSLNGLVDLPTMSNTTLVDKFATPSNFRQLRDLIRNNNELLAEVVTAFEEKAALDFHYSKTLKKISIRLHKLTQSVESGIDKGWTNVAEQFDIHATIHSNLGSAITEDIIQPLRSIQSNQQKTIRAADNFVEREIRKLKDKKDETQKMKRSLYVLAKELEKTENSAEREKAQPEKFALRRKKYKDQMIRSEDDYVWQTVDLEKQRRMTENVLRKGVESMESVERQRLAHCQTALGRYKRKIETLGPNLRQMFERHSNNLELAVDSVPEDYIQTIQPSTSAVNHITLIDLHAENFGEVMSSTRRRQNLERVSGVLDSELKRLYNNQTADVMVSNSKQISVLEFIEYLYYKLNDSINIVDGGQNRGFHRLSRFQHKIKDKSGLPMTILTIPLSGDNNSLPPPCLSMEASTAYPSPRGSGEYEEYEKISDDGFYSTTTTSSNGGPIRTTTTFDEPTSSPPTICRVLYDFEPKHADEIEIREGQCVLVEDRIGDDWLIGHVISQHDNSSIDPRSGRFPTTYVSLRQ	not soluble
MKIISFVLPCLLVLAGCSTPSQPEAPKPPQIGMANPASVYCQQKGGTLIPVQTAQGVSNNCKLPGGETIDEWALWRRDHPAGEKLEHHHHHH	not soluble
MSLTQETALGAALKSAVQTMSKKKQTEMIADHIYGKYDVFKRFKPLALGIDQDLIAALPQYDAALIARVLANHCRRPRYLKALARGGKRFDLNNRFKGEVTPEEQAIAQNHPFVQQALQQQSAQAAAETLSVEAEAAESSAAEEGGSHHHHHH	soluble
MGSDKIHHHHHHMVIENAMNIQFVLKDFSTFGGVERIQYNLAKKFKNDGHNVSFYILNGDSVALDTSHEFIIHKGSKSGFITFLFEIIKLRNNIYKNRIDVVIAAKEQANIAAFFATIFTKVSTIYTRHSALNVSEQRINERSVLLIYSLLTLSKGKVVTVSHDLKYSLLKSLPWGKDKIHVCPNPVLTESIYLKSLQPITDFKLPLSYICSVGRLTRTKGFDVLIQAYKQCITKELNFPDLVIAGSGEEYASLVKLTQELNVADKVHFLGHIDNPYVLMKNSSGFVLSSRNEGLPTVLIEAIALGTNVVSTDCLTGPREILDGGRIGKLVPVEDVRSLAEAMLTLPLHKLSESEIREMDRYSLEQSAIAYFKLFTKKSH	not soluble
APADKPQVLASFTQTSASSQNAWLAANRNQSAWAAYEFDWSTDLCTQAPDNPFGFPFNTACARHDFGYRNYKAAGSFDANKSRIDSAFYEDMKRVCTGYTGEKNTACNSTAWTYYQAVKIFG	soluble
MGSDKIHHHHHHMELQDKYIRFDWAVKRLLRHKANFGVLEGFLTVLIGDEIHIVEILESEGNQQTENDKFNRVDIKALNSKNEIVIIEIQNTRELYYLERILYGVAKAITEHISLGETYYKVKKIYSISILYFDIGHGTDYLYHGQNIFKGVHTGDFLQVSTREKDAIVPRMPSEIYPEYFLIRVNEFNKVAVTPLEEWIEYLKTGIIRPDTTAPGLGEAREKLKYYSMTPQERHAYDEHLSALMIQNDVLDSAKLEGKIEGKIEGKIEGRLEGRAEGREEGREEGIKEGVLRNARRMKEKGFSTEDIMEITGLTFEEVSQL	not soluble
MAKYIEIANTLRTSISNHEYKNNDPFPDQQALSKKFSTSRMTIQKALNILKTEGLIYSKQGSGTFVSSNADLIEQTDLEINQYIGTTDLFGKTHKINSKIIKFTIRYPDKSEQNALRISKKDLIYDITRLRIVDEEPYVLEYTKMPVKVIPGISDDILKKSIYHYIKSDLNLKIGSAFRKIRADKPNLFDKKFLNCKNEDPILEITQTAFLNSDIPFEFSRVRYRYDKGNMVVFVKSSFER	not soluble
MGSDKIHHHHHHMSRILNTEIIIPIIEKLVKKACYELDDNLMCSFRKAYDKEESKIGKETIKILIDNGEYAKKEQLACCHDTGTCIVIMEIGQHVCWEGKPLKDQVNQGVRQGYENGYLRKSMVADPLERINTNDNTPAILHTEIVDGDRVTITVMPKGGGSENMGTFKTLLPGDGIDGIKDFVLETVRRVGGNPCPPYIIGIGVGGTMDHCSWMAKKALLRPLGEFNAKPLYAQLEAELLEAVNNTGIGPLGMGGRITALGVHVDYYPCHITALPVAINFQCNASRHASEII	not soluble
MVFYLIGLGLGDVEDITVKGLNIVKNCARVHLEAYTSILCYGLDKTNLEKFYGREIIEADRTVVEQESDAILNGADKEDVALLVVGDPFGATTHADLVLRAKQQNIPVKVIHNASIMNAVGCCGLQLYNFGETVSIVMWTDEWQPESYYDKIALNRKRGMHTLCLLDIKTKEQTVENMMRGRKIFEPARYQKCSEAARQLLTIYERRKAKGEECAYDENTMVVGLARVGWDNQKIVYASMKDMSEMEMGEPLHSLIIPGETHPLEVDMLETFRP	not soluble
NAMPPIIKRRVMRKIIIASQNPAKVNAVRSAFSTVFPDQEWEFIGVSVPSEVADQPMSDEETKQGALNRVRNAKQRHPGAEYYVGLEAGIEENKTFAWMIVESDQQRGESRSACLMLPPLVLERLRQAKELGDVMDEVFGTENIKQKGGAIGLLTRHHLTRSTVYHQALILALIPFINPEHYPSA	soluble
MPFSISGRKGSEMMAKLDELKQKLTAKQIQAAYLLVENELMESNNEEKRTQDEMANELGINRTTLWEWRTKNQDFIAFKSEVADSFLAEKREQVYSKLMQLILGPQPSVKAMQLYMQRFGLLTDKKVIEGDLGNATRTNAEIEEQLQKLKKLTGE	soluble
MLVSKSNGFNASAVLGSGSYNENKSSKHMELLAHSILKLICKEAASETYRGALETLQKMMSECIYQEGNAFVIMGAGEQLKRIKYEVGENNLKVFNVHFNNNHELVSSGEPDVICLSKQVWENLLIKLKLENNENVFSETKKLSNKNNADQFFECAKRNE	not soluble
MIGITGVTGKLGSKVAQLISEQGISARHLARNPQRAALYDNAELVQVAFENSLEAVEALKGIDVLLMVSASESPNRLQQHFAFLDAAHEAGVKHIVYTSFYNAATEATFTLARDHAKTEKYIKERGFTYTFLRDNFYLDFFLDLCLNNGEIRGPAGNGKVSAVARQDVSEVATTILAKPDKWKNQLLNMTGPADLSMADIVHFVSEQKGEIIPYIDESIEEAYASRKAWPAQDWEYDAWVSTYTAIKEGKQAGVSSDIERVLGRPATSLEQLVKTIK	not soluble

— the DeepSol protein solubility set
